Measurements published in patent CN116199779A (BEIJING DONGFANG BIOTECH CO LTD; BEIJING JINGYI TAIXIANG …, dated 2023).
Where two headings read alike, the source gives them in different places.

Tests used:
THP-1细胞表面的LILRB4 [1] = molecular target: T1, THP-1细胞表面的LILRB4 (human, UniProt Q8NHJ6 22-448); assay: cell-based or functional assay
LILRB4抗原 (人LILRB4蛋白胞外段) [2] = molecular target: T2, LILRB4抗原 (人LILRB4蛋白胞外段) (human, UniProt Q8NHJ6 22-259); assay: ELISA, coated LILRB4, anti-human IgG-HRP
T2 construct: extracellular domain; also called 白细胞免疫球蛋白样受体亚家族B成员4

THP-1细胞表面的LILRB4 [3] = molecular target: T1, THP-1细胞表面的LILRB4; assay: cell-based or functional assay; remark: listed apart in the source
THP-1细胞表面的LILRB4 [4] = molecular target: T1, THP-1细胞表面的LILRB4; assay: flow cytometry competition on THP-1 cells; competitor FITC-labelled ApoE
THP-1细胞表面的LILRB4 [5] = molecular target: T1, THP-1细胞表面的LILRB4; assay: flow cytometry on THP-1 cells
LILRA2 [6] = molecular target: T3, LILRA2 (UniProt Q8N149 24-449, limits assumed); assay: ELISA, coated protein 100ng/well, antibody 50μg/mL
T3 construct: construct not described
T3 sequence (Q8N149 24-449 limits assumed): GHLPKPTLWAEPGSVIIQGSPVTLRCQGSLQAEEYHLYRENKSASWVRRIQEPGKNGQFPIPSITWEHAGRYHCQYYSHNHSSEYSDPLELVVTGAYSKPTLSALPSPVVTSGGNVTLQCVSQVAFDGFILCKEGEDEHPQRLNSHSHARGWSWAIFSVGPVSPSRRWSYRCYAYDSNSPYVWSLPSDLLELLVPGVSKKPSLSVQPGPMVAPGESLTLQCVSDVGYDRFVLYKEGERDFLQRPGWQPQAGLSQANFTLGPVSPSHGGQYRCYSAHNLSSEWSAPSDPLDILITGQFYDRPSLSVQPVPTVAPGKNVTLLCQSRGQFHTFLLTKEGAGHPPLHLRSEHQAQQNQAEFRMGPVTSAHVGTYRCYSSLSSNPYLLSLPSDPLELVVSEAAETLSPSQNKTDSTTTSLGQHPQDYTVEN

LILRB2 [7] = molecular target: T4, LILRB2 (UniProt Q8N423 22-460, limits assumed); assay: ELISA, coated protein 100ng/well, antibody 50μg/mL
T4 construct: construct not described
T4 sequence (Q8N423 22-460 limits assumed): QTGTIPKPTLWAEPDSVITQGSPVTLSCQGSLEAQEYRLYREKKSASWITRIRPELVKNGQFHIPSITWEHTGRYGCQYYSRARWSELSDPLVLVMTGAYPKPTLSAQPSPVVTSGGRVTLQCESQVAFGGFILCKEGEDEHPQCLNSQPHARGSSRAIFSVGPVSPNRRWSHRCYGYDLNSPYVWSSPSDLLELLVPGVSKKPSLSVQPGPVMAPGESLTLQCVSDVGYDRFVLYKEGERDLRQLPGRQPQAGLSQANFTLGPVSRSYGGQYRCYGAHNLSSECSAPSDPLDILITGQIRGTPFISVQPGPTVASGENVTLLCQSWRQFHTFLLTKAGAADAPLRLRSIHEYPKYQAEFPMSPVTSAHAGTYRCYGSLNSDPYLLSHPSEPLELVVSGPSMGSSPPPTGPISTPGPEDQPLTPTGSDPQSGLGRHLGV

LILRB3 [8] = molecular target: T5, LILRB3 (UniProt O75022 24-443, limits assumed); assay: ELISA, coated protein 100ng/well, antibody 50μg/mL
T5 construct: construct not described
T5 sequence (O75022 24-443 limits assumed): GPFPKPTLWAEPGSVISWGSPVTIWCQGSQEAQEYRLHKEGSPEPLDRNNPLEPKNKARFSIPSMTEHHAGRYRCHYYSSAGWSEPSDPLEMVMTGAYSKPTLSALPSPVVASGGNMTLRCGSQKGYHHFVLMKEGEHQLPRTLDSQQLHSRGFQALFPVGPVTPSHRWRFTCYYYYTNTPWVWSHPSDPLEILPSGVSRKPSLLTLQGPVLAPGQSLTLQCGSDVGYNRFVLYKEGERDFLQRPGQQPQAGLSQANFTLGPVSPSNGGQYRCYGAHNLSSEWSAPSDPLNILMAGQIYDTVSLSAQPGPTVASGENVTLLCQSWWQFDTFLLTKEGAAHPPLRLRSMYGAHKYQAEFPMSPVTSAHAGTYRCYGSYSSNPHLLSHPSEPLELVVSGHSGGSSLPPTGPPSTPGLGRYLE

LILRB1 [9] = molecular target: T6, LILRB1 (UniProt Q8NHL6 24-461, limits assumed); assay: ELISA, coated protein 100ng/well, antibody 50μg/mL
T6 construct: construct not described
T6 sequence (Q8NHL6 24-461 limits assumed): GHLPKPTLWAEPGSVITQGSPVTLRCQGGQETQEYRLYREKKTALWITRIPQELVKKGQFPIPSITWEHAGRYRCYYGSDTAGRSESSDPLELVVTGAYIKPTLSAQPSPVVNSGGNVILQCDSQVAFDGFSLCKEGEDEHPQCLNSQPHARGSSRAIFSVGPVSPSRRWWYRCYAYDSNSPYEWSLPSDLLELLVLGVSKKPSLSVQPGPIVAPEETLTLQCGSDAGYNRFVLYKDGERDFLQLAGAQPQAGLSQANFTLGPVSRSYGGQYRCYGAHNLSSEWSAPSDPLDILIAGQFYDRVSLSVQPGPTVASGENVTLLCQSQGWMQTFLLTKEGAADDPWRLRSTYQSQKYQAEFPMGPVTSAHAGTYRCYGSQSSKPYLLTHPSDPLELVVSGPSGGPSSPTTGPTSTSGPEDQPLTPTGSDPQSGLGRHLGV

LILRA3 [10] = molecular target: T7, LILRA3 (UniProt Q8N6C8 24-439); assay: ELISA, coated protein 100ng/well, antibody 50μg/mL
T7 construct: construct not described
T7 sequence (Q8N6C8 24-439 limits assumed): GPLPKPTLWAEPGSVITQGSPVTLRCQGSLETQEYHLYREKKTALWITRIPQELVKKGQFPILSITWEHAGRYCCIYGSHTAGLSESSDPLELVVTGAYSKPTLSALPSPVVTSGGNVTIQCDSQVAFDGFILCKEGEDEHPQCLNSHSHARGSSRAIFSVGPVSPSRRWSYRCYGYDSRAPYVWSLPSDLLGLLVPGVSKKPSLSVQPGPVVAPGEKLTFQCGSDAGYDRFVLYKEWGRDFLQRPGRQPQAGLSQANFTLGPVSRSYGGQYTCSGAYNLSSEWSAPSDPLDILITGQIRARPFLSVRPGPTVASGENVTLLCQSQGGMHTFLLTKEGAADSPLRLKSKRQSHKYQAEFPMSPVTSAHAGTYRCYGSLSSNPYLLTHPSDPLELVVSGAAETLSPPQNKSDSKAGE

LILRA1 [11] = molecular target: T8, LILRA1 (UniProt O75019 17-461, limits assumed); assay: ELISA, coated protein 100ng/well, antibody 50μg/mL
T8 construct: construct not described
T8 sequence (O75019 17-461 limits assumed): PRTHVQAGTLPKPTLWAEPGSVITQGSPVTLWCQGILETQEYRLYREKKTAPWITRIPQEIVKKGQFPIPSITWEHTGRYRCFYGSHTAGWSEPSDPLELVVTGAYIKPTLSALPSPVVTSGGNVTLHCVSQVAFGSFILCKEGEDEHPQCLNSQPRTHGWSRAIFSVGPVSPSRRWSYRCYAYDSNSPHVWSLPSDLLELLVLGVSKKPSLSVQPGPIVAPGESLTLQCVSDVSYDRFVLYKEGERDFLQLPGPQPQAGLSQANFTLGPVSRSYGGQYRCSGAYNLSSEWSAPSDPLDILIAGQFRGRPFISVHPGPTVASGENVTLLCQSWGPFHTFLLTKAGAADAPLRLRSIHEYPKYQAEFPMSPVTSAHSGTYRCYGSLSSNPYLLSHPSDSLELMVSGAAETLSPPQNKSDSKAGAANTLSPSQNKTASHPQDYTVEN

LILRA4 [12] = molecular target: T9, LILRA4 (UniProt P59901 24-446, limits assumed); assay: ELISA, coated protein 100ng/well, antibody 50μg/mL
T9 construct: construct not described
T9 sequence (P59901 24-446 limits assumed): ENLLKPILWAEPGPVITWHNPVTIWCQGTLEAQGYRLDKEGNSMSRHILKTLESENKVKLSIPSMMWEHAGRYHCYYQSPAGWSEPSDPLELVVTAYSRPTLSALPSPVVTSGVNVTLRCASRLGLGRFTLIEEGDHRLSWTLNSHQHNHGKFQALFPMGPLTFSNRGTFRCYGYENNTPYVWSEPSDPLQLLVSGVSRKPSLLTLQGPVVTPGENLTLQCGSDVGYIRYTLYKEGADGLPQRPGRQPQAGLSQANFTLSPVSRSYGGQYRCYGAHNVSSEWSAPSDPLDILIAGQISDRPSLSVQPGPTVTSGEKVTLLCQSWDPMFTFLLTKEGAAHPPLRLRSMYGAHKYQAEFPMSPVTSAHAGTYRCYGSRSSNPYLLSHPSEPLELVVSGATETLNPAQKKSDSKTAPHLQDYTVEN

LILRA5 [13] = molecular target: T10, LILRA5 (UniProt A6NI73 42-268, limits assumed); assay: ELISA, coated protein 100ng/well, antibody 50μg/mL
T10 construct: construct not described
T10 sequence (A6NI73 42-268 limits assumed): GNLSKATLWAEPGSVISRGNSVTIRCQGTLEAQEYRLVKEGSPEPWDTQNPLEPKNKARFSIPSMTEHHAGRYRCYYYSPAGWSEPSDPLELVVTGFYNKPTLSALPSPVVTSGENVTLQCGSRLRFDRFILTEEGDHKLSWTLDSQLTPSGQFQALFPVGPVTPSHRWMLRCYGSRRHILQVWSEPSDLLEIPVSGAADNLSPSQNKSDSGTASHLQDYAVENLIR

LILRB4抗原 (人LILRB4蛋白胞外段) [14] = molecular target: T2, LILRB4抗原 (人LILRB4蛋白胞外段); assay: ELISA, coated protein 100ng/well, antibody 50μg/mL
LILRB5 [15] = molecular target: T11, LILRB5 (UniProt O75023 24-458, limits assumed); assay: ELISA, coated protein 100ng/well, antibody 50μg/mL
T11 construct: construct not described
T11 sequence (O75023 24-458 limits assumed): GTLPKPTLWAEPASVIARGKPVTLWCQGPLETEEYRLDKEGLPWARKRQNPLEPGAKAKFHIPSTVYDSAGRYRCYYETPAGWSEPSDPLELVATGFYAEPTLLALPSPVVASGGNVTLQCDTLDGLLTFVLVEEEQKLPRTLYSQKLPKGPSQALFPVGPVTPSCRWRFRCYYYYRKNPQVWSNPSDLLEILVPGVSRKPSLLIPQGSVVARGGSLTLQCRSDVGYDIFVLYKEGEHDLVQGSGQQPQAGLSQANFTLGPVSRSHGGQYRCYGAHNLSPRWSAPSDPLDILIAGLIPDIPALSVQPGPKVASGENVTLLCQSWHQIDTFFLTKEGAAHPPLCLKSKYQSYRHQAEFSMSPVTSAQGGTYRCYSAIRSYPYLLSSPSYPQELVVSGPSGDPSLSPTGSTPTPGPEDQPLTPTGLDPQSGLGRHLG

LILRA6 [16] = molecular target: T12, LILRA6 (UniProt Q6PI73 24-447, limits assumed); assay: ELISA, coated protein 100ng/well, antibody 50μg/mL
T12 construct: construct not described
T12 sequence (Q6PI73 24-447 limits assumed): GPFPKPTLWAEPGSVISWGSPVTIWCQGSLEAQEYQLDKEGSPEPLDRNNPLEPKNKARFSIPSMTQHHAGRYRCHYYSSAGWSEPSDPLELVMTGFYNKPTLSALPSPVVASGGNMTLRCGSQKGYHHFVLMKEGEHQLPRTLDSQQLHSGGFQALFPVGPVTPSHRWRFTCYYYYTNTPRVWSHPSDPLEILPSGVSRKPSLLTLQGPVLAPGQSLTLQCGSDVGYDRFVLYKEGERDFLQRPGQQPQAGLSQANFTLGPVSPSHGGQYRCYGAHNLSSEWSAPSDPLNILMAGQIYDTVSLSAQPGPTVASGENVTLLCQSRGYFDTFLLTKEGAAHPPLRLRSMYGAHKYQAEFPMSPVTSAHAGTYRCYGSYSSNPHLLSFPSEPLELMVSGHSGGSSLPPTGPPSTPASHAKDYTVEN

LILRA2 [17] = molecular target: T3, LILRA2; assay: ELISA, coated protein 100ng/well
LILRB2 [18] = molecular target: T4, LILRB2; assay: ELISA, coated protein 100ng/well
LILRB3 [19] = molecular target: T5, LILRB3; assay: ELISA, coated protein 100ng/well
LILRB1 [20] = molecular target: T6, LILRB1; assay: ELISA, coated protein 100ng/well
LILRA3 [21] = molecular target: T7, LILRA3; assay: ELISA, coated protein 100ng/well
LILRA1 [22] = molecular target: T8, LILRA1; assay: ELISA, coated protein 100ng/well
LILRA4 [23] = molecular target: T9, LILRA4; assay: ELISA, coated protein 100ng/well
LILRA5 [24] = molecular target: T10, LILRA5; assay: ELISA, coated protein 100ng/well
LILRB5 [25] = molecular target: T11, LILRB5; assay: ELISA, coated protein 100ng/well
LILRA6 [26] = molecular target: T12, LILRA6; assay: ELISA, coated protein 100ng/well
LILRB4抗原 (人LILRB4蛋白胞外段) [27] = molecular target: T2, LILRB4抗原 (人LILRB4蛋白胞外段); assay: ELISA, coated LILRB4, anti-mouse IgG-HRP
THP-1细胞表面的LILRB4 [28] = molecular target: T1, THP-1细胞表面的LILRB4; assay: cell-based or functional assay; remark: listed apart in the source
THP-1细胞表面的LILRB4 [29] = molecular target: T1, THP-1细胞表面的LILRB4; assay: flow cytometry on THP-1 cells, FITC anti-mouse IgG
THP-1细胞表面的LILRB4 [30] = molecular target: T1, THP-1细胞表面的LILRB4; assay: flow cytometry competition on THP-1 cells; competitor FITC-labelled ApoE; remark: listed apart in the source

B1: 人源化抗体HA-Ⅰ (human IgG1, Ck) (antibody, V domains shown)
VH: EVQLVESGGGLVKPGGSLRLSCAASGFTFSSYTMSWVRQAPGKGLEWVSTISSGGTYTYYPDSVKGRFTISRDNAKNSLYLQMNSLRAEDTAVYYCARDGYDGFDYWGQGTTVTVSS
VL: DIVMTQTPLSLSVTPGQPASISCRSSQSLAHSNGNTYLHWYLQKPGQSPQLLIYKVSNRFSGVPDRFSGSGSGTDFTLKISRVEAEDVGVYYCSQSTHVPTFGGGTKVEIKR
notes: also called HA-I
**Q.** Which “IC50, NF-κB luciferase reporter in THP-1-NF-κB-Luc cells stimulated with ApoE” value (THP-1细胞表面的LILRB4 [1]) does the source give for B1 here?
**A.** 0.756 µg/mL

**Q.** And the EC50 (LILRB4抗原 (人LILRB4蛋白胞外段) [2])?
**A.** 0.0174 µg/mL

**Q.** And the “IC50 of inhibition of ARG1 secretion by THP-1 cells with ApoE (arginase activity)” value (THP-1细胞表面的LILRB4 [3])?
**A.** 31.2 µg/mL

**Q.** And the IC50 (THP-1细胞表面的LILRB4 [4])?
**A.** 0.48 µg/mL

**Q.** What about the EC50 (THP-1细胞表面的LILRB4 [5]) of the same binder?
**A.** 0.181 µg/mL

B2: 人源化抗体HA-Ⅲ (human IgG1, Ck) (antibody, V domains shown)
VH: EVQLVESGGGLVKPGGSLRLSCAASGFTFSSYTMSWVRQAPGKGLEWVATISSGGTYTYYPDSVKGRFTISRDNAKNSLYLQMNSLRAEDTAVYYCTRDGYDGFDYWGQGTTVTVSS
VL: DIVMTQTPLSLSVTPGQPASISCRSSQSLAHSNGNTYLHWYLQKPGQSPKLLIYKVSNRFSGVPDRFSGSGSGTDFTLKISRVEAEDVGVYFCSQSTHVPTFGGGTKVEIKR
notes: also called HA-III
**Q.** Which results are given for B2?
**A.** IC50, NF-κB luciferase reporter in THP-1-NF-κB-Luc cells stimulated with ApoE (THP-1细胞表面的LILRB4 [1]): 3.44 µg/mL; EC50 (LILRB4抗原 (人LILRB4蛋白胞外段) [2]): 0.014 µg/mL; IC50 of inhibition of ARG1 secretion by THP-1 cells with ApoE (arginase activity) (THP-1细胞表面的LILRB4 [3]): 98.5 µg/mL; IC50 (THP-1细胞表面的LILRB4 [4]): 2.56 µg/mL; EC50 (THP-1细胞表面的LILRB4 [5]): 0.186 µg/mL

B3: MB-Ⅰ 鼠源抗LILRB4单克隆抗体 (mouse IgG1, Ck) (antibody)
heavy: QVQLQESGAELVKPGASVKLSCKASGYTFTNYWMHWVKQRPGQGLEWIGEINPSNGRTNYNEKFKTKATLTVDKSSSTAYMQLSSLTSEDSAVYYCARWGQLGLREGYYAVDYWGQGTSVTVSSAKTTPPSVYPLAPGSAAQTNSMVTLGCLVKGYFPEPVTVTWNSGSLSSGVHTFPAVLQSDLYTLSSSVTVPSSTWPSETVTCNVAHPASSTKVDKKIVPRDCGCKPCICTVPEVSSVFIFPPKPKDVLTITLTPKVTCVVVDISKDDPEVQFSWFVDDVEVHTAQTQPREEQFNSTFRSVSELPIMHQDWLNGKEFKCRVNSAAFPAPIEKTISKTKGRPKAPQVYTIPPPKEQMAKDKVSLTCMITDFFPEDITVEWQWNGQPAENYKNTQPIMDTDGSYFVYSKLNVQKSNWEAGNTFTCSVLHEGLHNHHTEKSLSHSPG
light: DIVMTQSPSSLSASLGDRVTISCRASQDISNYLNWYQQKPDGTVKLLIYYTSRLHSGVPSRFSGSGSGTDYSLTISNLEQEDIATYFCQQGNTLPPTFGGGTKLEIKADAAPTVSIFPPSSEQLTSGGASVVCFLNNFYPKDINVKWKIDGSERQNGVLNSWTDQDSKDSTYSMSSTLTLTKDEYERHNSYTCEATHKTSTSPIVKSFNRNEC
notes: also called MB-I; 鼠源抗体MB-Ⅰ
**Q.** How did the “OD 450nm/630nm” value (LILRA2 [6]) turn out when B3 was run?
**A.** 0.024 OD

**Q.** What about the “OD 450nm/630nm” value (LILRB2 [7]) of the same binder?
**A.** 0.055 OD

**Q.** What about the “OD 450nm/630nm” value (LILRB3 [8]) of the same binder?
**A.** 0.022 OD

**Q.** What about the “OD 450nm/630nm” value (LILRB1 [9]) of the same binder?
**A.** 0.038 OD

**Q.** What about the “OD 450nm/630nm” value (LILRA3 [10]) of the same binder?
**A.** 0.056 OD

**Q.** And the “OD 450nm/630nm” value (LILRA1 [11])?
**A.** 0.022 OD

**Q.** And the “OD 450nm/630nm” value (LILRA4 [12])?
**A.** 0.028 OD

**Q.** What about the “OD 450nm/630nm” value (LILRA5 [13]) of the same binder?
**A.** 0.045 OD

**Q.** What about the “OD 450nm/630nm” value (LILRB4抗原 (人LILRB4蛋白胞外段) [14]) of the same binder?
**A.** 2.9 OD

**Q.** What about the “OD 450nm/630nm” value (LILRB5 [15]) of the same binder?
**A.** 0.016 OD

**Q.** What about the “OD 450nm/630nm” value (LILRA6 [16]) of the same binder?
**A.** 0.026 OD

**Q.** Does B3 bind (LILRA2 [17])?
**A.** no binding (tested: 50μg/mL)

**Q.** Does B3 bind (LILRB2 [18])?
**A.** no binding (tested: 50μg/mL)

**Q.** Does B3 bind (LILRB3 [19])?
**A.** no binding (tested: 50μg/mL)

**Q.** Does B3 bind (LILRB1 [20])?
**A.** no binding (tested: 50μg/mL)

**Q.** Does B3 bind (LILRA3 [21])?
**A.** no binding (tested: 50μg/mL)

**Q.** Does B3 bind (LILRA1 [22])?
**A.** no binding (tested: 50μg/mL)

**Q.** Does B3 bind (LILRA4 [23])?
**A.** no binding (tested: 50μg/mL)

**Q.** Does B3 bind (LILRA5 [24])?
**A.** no binding (tested: 50μg/mL)

**Q.** Does B3 bind (LILRB5 [25])?
**A.** no binding (tested: 50μg/mL)

**Q.** Does B3 bind (LILRA6 [26])?
**A.** no binding (tested: 50μg/mL)

**Q.** What about the EC50 (LILRB4抗原 (人LILRB4蛋白胞外段) [27]) of the same binder?
**A.** 0.0128 µg/mL

**Q.** And the “IC50 of inhibition of ARG1 secretion by THP-1 cells with ApoE (arginase activity)” value (THP-1细胞表面的LILRB4 [28])?
**A.** 46 µg/mL

**Q.** What about the EC50 (THP-1细胞表面的LILRB4 [29]) of the same binder?
**A.** 0.351 µg/mL

**Q.** What about the IC50 (THP-1细胞表面的LILRB4 [30]) of the same binder?
**A.** 0.44 µg/mL

B4: 人源化抗体HB-Ⅰ (human IgG1, Ck) (antibody, V domains shown)
VH: QVQLVQSGAEVKKPGASVKVSCKASGYTFTNYWMHWVRQAPGQGLEWIGEINPSNGRTNYNEKFKTRATLTVDTSTSTAYMELSSLRSEDTAVYYCARWGQLGLREGYYAVDYWGQGTLVTVSS
VL: DIQMTQSPSSLSASVGDRVTITCRASQDISNYLNWYQQKPGKAPKLLIYYTSRLHSGVPSRFSGSGSGTDYTFTISSLQPEDIATYYCQQGNTLPPTFGGGTKVEIKR
notes: also called HB-I
**Q.** For B4, which EC50 (LILRB4抗原 (人LILRB4蛋白胞外段) [2]) is on record?
**A.** 0.343 µg/mL
